The values below come from article PMC12828377, “HDAC6-mediated PFKL deacetylation enhances aerobic glycolysis and promotes VSMC proliferation” (The Journal of Biological Chemistry, 2025).

By stoichiometry N is commonly meant the number of molecules, sites or subunits per partner or assembly.

Holding throughout (assay): cross-linking; VSMC lysate (700 ug protein in NP40 buffer) fixed with 0.1% glutaraldehyde on ice for 10 min, then Western blot; cells with or without PDGF-BB (10 ng/ml, different durations), TSA or NAM, or transduced with Ad-PFKL WT/K563Q/K563R
Background: A western blot detects proteins with antibodies after separation by electrophoresis.

One series concerns the target HA-PFKL WT (UniProt P17858).
A further series concerns the target HA-PFKL K563R (UniProt P17858).
Series [1] deals with the molecule itself.

The molecule “HA-PFKL WT (from UniProt P17858 1-780) (enzyme)” returned a stoichiometry N with HA-PFKL WT of 4.
In the case of “HA-PFKL K563R (from UniProt P17858 1-780) (enzyme)”, in the series with HA-PFKL K563R, the stoichiometry N was 4.

B1: phosphofructokinase, liver type (PFKL) (enzyme, rat (endogenous in primary rat VSMCs), UniProt P30835 1-780, looked up)
chain: MATVDLEKLRMSGAGKAIGVLTSGGDAQGMNAAVRAVTRMGIYVGAKVFLIYEGYEGLVEGGENIKPANWLSVSNIIQLGGTIIGSARCKAFTTREGRLAAAYNLLQHGITNLCVIGGDGSLTGANIFRNEWGSLLEELVKEGKISESTAQNYAHLSIAGLVGSIDNDFCGTDMTIGTDSALHRIMEVIDAITTTAQSHQRTFVLEVMGRHCGYLALVSALASGADWLFIPEAPPEDGWENFMCERLGETRSRGSRLNIIIIAEGAIDRHGKPISSSYVKDLVVQRLGFDTRVTVLGHVQRGGTPSAFDRVLSSKMGMEAVMALLEATPDTPACVVSLSGNQSVRLPLMECVQVTKDVQKAMDEKRFDEAIQLRGRSFENNWKIYKLLAHQKVSKEKSNFSLAILNVGAPAAGMNAAVRSAVRTGISEGHTVYVVHDGFEGLAKGQVQEVGWHDVAGWLGRGGSMLGTKRTLPKPHLEAIVENLRTYNIHALLVIGGFEAYEGVLQLVEARGRYEELCIVMCVIPATISNNVPGTDFSLGSDTAVNAAMESCDRIKQSASGTKRRVFIVETMGGYCGYLATVTGIAVGADAAYVFEDPFNIHDLKANVEHMTEKMKTDIQRGLVLRNEKCHEHYTTEFLYNLYSSEGRGVFDCRTNVLGHLQQGGAPTPFDRNYGTKLGVKAMLWMSEKLRDVYRKGRVFANAPDSACVIGLRKKVVAFSSVTELKKETDFEHRMPREQWWLNLRLMLKMLAHYRISMADYVSGELEHVTRRTLSIDKGF
notes: phosphofructokinase, liver type (PFKL), endogenous in primary VSMCs from the thoracic aorta of Sprague-Dawley rats; Acetylation level of the endogenous protein changes with PDGF-BB, TSA or NAM; sites on the endogenous protein were not mapped directly; also called endogenous PFKL; PFK1 liver isoform; source: endogenous, primary rat VSMC lysate (NP-40 buffer) or fixed VSMCs
In the case of B1, the “stoichiometry N” value in series [1] is 4.
